Changes are numbered by the printed parent chain.
Experiments:
Test in all cases: SPR, KD relative to WT C2;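 further: biacore SPR at 37 °C, anti-C2 mAbs captured via immobilised goat anti-human IgG, C2 alanine or serine surface mutants as analytes, 1:1 model fitted, double-referenced sensograms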
human C2 K711A = target: T1, human C2 K711A (human, UniProt P06681 21-752)
T1 sequence: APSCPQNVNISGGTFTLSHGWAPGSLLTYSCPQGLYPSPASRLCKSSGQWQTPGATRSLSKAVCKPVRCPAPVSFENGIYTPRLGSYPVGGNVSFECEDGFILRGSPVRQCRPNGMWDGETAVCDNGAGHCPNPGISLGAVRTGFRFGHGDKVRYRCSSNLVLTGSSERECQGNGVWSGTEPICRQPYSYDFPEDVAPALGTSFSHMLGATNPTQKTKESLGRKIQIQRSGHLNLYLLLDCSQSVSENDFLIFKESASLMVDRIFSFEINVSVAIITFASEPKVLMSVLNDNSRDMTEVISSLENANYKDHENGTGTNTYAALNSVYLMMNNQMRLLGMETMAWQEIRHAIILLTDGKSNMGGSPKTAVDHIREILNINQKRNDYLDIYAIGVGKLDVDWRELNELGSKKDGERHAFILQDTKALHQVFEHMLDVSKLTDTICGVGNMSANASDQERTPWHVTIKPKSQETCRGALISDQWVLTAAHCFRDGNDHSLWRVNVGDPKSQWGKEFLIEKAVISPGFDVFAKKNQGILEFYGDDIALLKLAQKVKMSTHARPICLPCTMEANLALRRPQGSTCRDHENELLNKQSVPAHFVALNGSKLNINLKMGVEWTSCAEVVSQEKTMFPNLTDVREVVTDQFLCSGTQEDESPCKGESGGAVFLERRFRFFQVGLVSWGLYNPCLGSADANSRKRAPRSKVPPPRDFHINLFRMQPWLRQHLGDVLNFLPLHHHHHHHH

human C2 E686A = target: T2, human C2 E686A (human, UniProt P06681 21-752)
T2 sequence: T1 sequence with E666A, A691K

human C2 S278A = target: T3, human C2 S278A (human, UniProt P06681 21-752)
T3 sequence: T1 sequence with S258A, A691K

human C2 F689A = target: T4, human C2 F689A (human, UniProt P06681 21-752)
T4 sequence: T1 sequence with F669A, A691K

B1: RF16-226 (antibody, human IgG4 S228P, lambda)
heavy: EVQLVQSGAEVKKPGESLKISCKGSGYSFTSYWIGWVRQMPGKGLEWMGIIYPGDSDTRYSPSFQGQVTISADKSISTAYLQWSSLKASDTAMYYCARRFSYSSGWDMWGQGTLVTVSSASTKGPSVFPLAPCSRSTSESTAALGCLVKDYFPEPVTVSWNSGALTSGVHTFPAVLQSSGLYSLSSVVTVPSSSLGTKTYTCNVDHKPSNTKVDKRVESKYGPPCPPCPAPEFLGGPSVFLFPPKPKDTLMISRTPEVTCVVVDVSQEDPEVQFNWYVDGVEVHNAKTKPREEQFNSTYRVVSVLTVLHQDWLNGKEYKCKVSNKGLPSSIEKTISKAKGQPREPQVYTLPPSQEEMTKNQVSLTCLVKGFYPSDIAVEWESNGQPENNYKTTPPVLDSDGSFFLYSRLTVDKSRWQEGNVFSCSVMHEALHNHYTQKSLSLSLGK
light: SYELTQPPSVSVSPGQTARITCSGDALTSKYVAWYQQKSGLAPLLVIYEDTRRPSGIPAKFSGSSSGSVATLTISGAHGDDEADYYCYSTDASGHQRVFGGGTKLTVLSQPKAAPSVTLFPPSSEELQANKATLVCLISDFYPGAVTVAWKADGSPVKAGVETTKPSKQSNNKYAASSYLSLTPEQWKSHRSYSCQVTHEGSTVEKTVAPTECS
notes: pH-dependent anti-C2 antibody from a phage display library; also called WT
Fold diff (human C2 K711A): 5 fold
Fold diff (human C2 E686A): 5 fold
Fold diff (human C2 S278A): 1 fold
Fold diff (human C2 F689A): 1 fold
